# B1: Kelch-like protein 20 (Homo sapiens), Q9Y2M5 (parent)
# chain: MEGKPMRRCTNIRPGETGMDVTSRCTLGDPNKLPEGVPQPARMPYISDKHPRQTLEVINLLRKHRELCDVVLVVGAKKIYAHRVILSACSPYFRAMFTGELAESRQTEVVIRDIDERAMELLIDFAYTSQITVEEGNVQTLLPAACLLQLAEIQEACCEFLKRQLDPSNCLGIRAFADTHSCRELLRIADKFTQHNFQEVMESEEFMLLPANQLIDIISSDELNVRSEEQVFNAVMAWVKYSIQERRPQLPQVLQHVRLPLLSPKFLVGTVGSDPLIKSDEECRDLVDEAKNYLLLPQERPLMQGPRTRPRKPIRCGEVLFAVGGWCSGDAISSVERYDPQTNEWRMVASMSKRRCGVGVSVLDDLLYAVGGHDGSSYLNSVERYDPKTNQWSSDVAPTSTCRTSVGVAVLGGFLYAVGGQDGVSCLNIVERYDPKENKWTRVASMSTRRLGVAVAVLGGFLYAVGGSDGTSPLNTVERYNPQENRWHTIAPMGTRRKHLGCAVYQDMIYAVGGRDDTTELSSAERYNPRTNQWSPVVAMTSRRSGVGLAVVNGQLMAVGGFDGTTYLKTIEVFDPDANTWRLYGGMNYRRLGGGVGVIKMTHCESHIW
# Variants of: B1
# Details: with cul3_human CUL3, Q13618
row,effect of a mutation on the interaction,Variant
1,disrupting interaction,V109A
2,disrupting interaction,I111A
3,disrupting interaction,C146A
4,disrupting interaction,L150A
5,disrupting interaction,L148A

# Source: IntAct's records for PubMed 20389280
